Paper PMC7170535

Assays:
[1] = target: recombinant inter-α-inhibitor heavy chain 1 (rHC1), D298A MIDAS mutant (human) (UniProt P19827); assay: SPR; 1,500 RU rHC1 proteins immobilised on a C1 chip by amide cross-linking; ligand as analyte; HEPES-buffered saline pH 7.5, 0.05% Tween 20, 2 mM Mg2+, 2 mM Mn2+; 50 μl/min; multicycle kinetics, 1:1 Langmuir
[2] = target: recombinant inter-α-inhibitor heavy chain 1 (rHC1), wild type (human) (UniProt P19827); assay: as above
[3] = target: recombinant inter-α-inhibitor heavy chain 1 (rHC1), wild type (human) (UniProt P19827); assay: SPR; 1,500 RU rHC1 proteins immobilised on a C1 chip by amide cross-linking; ligand as analyte; HEPES-buffered saline pH 7.5, 0.05% Tween 20, 10 mM EDTA; 50 μl/min; multicycle kinetics, 1:1 Langmuir
complement C3 (human) = assay: SPR; ~2,000 RU C3 immobilised on a CM5 chip by amide coupling; rHC1 or IαI as analyte; HEPES-buffered saline pH 7.5, 0.05% Tween 20, 2 mM Mg2+, 2 mM Mn2+; multicycle kinetics, 1:1 Langmuir

Sequence of recombinant inter-α-inhibitor heavy chain 1 (rHC1), wild type (human) (P19827 35-672): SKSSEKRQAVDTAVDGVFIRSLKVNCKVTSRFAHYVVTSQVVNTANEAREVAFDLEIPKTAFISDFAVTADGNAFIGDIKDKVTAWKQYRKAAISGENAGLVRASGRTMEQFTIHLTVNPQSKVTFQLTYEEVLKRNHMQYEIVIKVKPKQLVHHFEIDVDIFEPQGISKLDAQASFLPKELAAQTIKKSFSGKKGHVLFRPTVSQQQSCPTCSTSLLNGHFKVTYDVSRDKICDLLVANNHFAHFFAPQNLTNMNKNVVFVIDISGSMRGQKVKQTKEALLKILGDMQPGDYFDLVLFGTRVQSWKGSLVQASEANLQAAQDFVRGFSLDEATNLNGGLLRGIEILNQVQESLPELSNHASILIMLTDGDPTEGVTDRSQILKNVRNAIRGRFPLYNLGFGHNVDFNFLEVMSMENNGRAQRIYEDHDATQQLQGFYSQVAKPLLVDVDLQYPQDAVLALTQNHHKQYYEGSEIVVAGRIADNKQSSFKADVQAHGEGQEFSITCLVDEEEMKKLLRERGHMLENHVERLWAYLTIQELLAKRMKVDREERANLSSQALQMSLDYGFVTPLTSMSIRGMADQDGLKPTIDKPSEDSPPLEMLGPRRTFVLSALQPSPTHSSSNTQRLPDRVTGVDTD
Sequence of LTBP1 N-terminal region (NT1), recombinant domain (domain or fragment) (Q14766 24-1721): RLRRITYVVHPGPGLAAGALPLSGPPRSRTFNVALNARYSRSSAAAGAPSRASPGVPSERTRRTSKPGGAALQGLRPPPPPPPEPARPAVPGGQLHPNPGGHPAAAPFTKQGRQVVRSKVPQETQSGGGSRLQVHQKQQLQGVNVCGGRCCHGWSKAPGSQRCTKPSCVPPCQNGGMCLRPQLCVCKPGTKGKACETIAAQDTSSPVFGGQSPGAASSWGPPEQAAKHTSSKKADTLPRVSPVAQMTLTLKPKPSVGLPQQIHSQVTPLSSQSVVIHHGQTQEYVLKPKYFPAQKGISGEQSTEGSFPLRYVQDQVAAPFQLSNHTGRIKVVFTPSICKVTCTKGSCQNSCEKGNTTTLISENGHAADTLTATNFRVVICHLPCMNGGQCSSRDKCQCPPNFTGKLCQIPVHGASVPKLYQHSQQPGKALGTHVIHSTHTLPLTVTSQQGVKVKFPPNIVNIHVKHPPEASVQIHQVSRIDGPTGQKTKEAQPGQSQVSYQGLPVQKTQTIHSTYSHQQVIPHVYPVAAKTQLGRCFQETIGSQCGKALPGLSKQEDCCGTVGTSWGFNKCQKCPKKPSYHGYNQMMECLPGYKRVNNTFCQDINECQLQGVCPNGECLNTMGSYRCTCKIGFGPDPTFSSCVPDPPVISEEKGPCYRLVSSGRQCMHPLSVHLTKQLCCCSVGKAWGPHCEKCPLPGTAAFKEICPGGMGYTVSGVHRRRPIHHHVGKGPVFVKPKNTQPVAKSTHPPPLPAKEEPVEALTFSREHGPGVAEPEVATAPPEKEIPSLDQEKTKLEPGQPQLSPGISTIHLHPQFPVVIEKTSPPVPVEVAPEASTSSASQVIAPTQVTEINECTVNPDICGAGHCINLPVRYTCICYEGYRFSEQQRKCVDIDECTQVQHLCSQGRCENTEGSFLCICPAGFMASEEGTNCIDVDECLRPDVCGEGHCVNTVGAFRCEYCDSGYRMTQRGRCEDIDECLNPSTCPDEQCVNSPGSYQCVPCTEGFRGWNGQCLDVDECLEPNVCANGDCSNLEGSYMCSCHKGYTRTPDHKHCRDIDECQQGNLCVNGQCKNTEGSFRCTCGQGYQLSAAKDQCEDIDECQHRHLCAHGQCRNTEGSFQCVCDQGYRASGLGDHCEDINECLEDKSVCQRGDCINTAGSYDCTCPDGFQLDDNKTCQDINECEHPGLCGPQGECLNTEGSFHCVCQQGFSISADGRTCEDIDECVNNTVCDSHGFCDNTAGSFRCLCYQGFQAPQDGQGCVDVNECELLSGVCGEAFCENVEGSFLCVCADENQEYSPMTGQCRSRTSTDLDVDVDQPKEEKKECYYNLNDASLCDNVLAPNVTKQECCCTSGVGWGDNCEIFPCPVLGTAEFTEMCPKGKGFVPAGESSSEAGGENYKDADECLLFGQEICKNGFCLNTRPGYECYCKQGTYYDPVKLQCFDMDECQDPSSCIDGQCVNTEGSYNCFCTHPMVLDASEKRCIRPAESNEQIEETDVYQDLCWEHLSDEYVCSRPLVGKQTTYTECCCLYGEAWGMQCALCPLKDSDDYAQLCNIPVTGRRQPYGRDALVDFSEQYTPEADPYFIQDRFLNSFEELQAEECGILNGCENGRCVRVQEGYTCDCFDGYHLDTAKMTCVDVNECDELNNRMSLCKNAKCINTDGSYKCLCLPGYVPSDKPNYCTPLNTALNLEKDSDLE
Sequence of recombinant inter-α-inhibitor heavy chain 1 (rHC1), D298A MIDAS mutant (human) (P19827 35-672 D298A): as the sequence (P19827 35-672) above, with D264A counted along it

Row | Substance | Kd [1] | Kd [2] | Kd [3] | Kd (complement C3 (human))
1 | TGFβ1-LAP, small latent complex of TGFβ1 (from UniProt P01137 30-278) | 14.9 nM | 16.1 nM | – | –
2 | LTBP1 N-terminal region (NT1), recombinant domain (domain or fragment) | – | 4.6 nM | 5.1 nM | –
3 | inter-α-inhibitor (IαI) (from UniProt P19827 35-672; P19823 55-702) (complex) | – | – | – | 659 nM
